Consider eight molecules from article PMC10770331, “The virulence regulator VirB from Shigella flexneri uses a CTP-dependent switch mechanism to activate gene expression” (Nature Communications, 2024).

Series [1] has as its target T1, VirB (Shigella flexneri, UniProt P0A247).
T1 construct: purified recombinant wild-type VirB, His6-SUMO tag removed; encoded on virulence plasmid pINV
The series can be described thus: isothermal titration calorimetry (MST KD […]). It is filed as binding.

In series [2] the target is T1, VirB. In words: microscale thermophoresis; supported by HDX-MS, crosslinking and weak CTPase activity. It is filed as binding. (In general: Microscale thermophoresis detects binding through changes in fluorescence in a small temperature gradient.)
The next series addresses T2, VirB (Shigella flexneri) (UniProt P0A247).
T2 sequence: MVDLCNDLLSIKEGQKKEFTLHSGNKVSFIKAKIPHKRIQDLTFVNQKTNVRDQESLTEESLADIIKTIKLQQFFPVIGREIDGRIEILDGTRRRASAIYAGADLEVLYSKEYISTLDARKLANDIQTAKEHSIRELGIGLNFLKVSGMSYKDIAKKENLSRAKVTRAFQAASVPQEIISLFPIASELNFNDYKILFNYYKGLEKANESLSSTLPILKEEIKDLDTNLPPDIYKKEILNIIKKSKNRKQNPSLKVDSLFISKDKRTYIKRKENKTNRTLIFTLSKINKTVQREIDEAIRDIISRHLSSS
The series can be described thus: BLI. The settings on record: BLI: 25 mM HEPES/NaOH pH 7.5, 150 mM (low stringency) or 500 mM (high stringency) NaCl, 5 mM MgCl2, 1 mM DTT, 10 uM BSA, 0.01% Tween 20, +/-1 mM nucleotide ….

Series [3] addresses T1, VirB. In words: isothermal titration calorimetry. It is filed as binding. Background: ITC needs no label: the signal is the heat of the interaction.
The target of series [4] is T3, VirB (Shigella flexneri, UniProt P0A247 1-309).
T3 sequence: T2 sequence
In words: BLI; 150 mM NaCl, without and with CTP; BLI: 25 mM HEPES/NaOH pH 7.5, 150 mM (low stringency) or 500 mM (high stringency) NaCl, 5 mM MgCl2, 1 mM DTT, 10 uM BSA, 0.01% Tween 20, +/-1 mM nucleotide; temperature not stated. The settings on record: protein: recombinant; tags: none (His6-SUMO removed by Ulp1); chain copies: 2; label: 5' biotin-TEG on strand 1; blunt; one end open. (BLI is a label-free optical method that tracks binding on a fibre tip over time.)

Series [5] concerns the molecule itself. The series can be described thus: mass photometry; ~100 nM protein in high-stringency buffer (25 mM HEPES/NaOH pH 7.5, 5 mM MgCl2, 500 mM NaCl, 1 mM DTT), without or with 1 mM CTP; oligomeric state in solution.
Series [6] deals with the molecule itself. In words: cross-linking; 10 µM protein, room temperature, 25 mM HEPES/NaOH pH 7.5, 500 mM NaCl, 5 mM MgCl2, 0.1 mM EDTA; alone, with 1 mM CTP and/or 1 µM virS DNA oligonucleotide; 1 mM BMOE for 1 min, SDS-PAGE; homodimerization of the two N-terminal NBDs within the VirB dimer (clamp closure).

Numbering of substitutions follows the chain as printed. Numbers in names are those of the source.

With `Nc1ccn([C@@H]2O[C@H](COP(=O)(O)OP(=O)(O)O)[C@@H](O)[C@H]2O)c(=O)n1` [CDP], on VirB [1], the Kd (as a rule, the concentration at which binding is half-saturated) is approximately 91 µM. `Nc1ccn([C@@H]2O[C@H](COP(=O)(O)OP(=O)(O)OP(=O)(O)O)[C@@H](O)[C@H]2O)c(=O)n1` [CTP] had a Kd on VirB [2] of 11 µM.

For the molecule NdeI-opened virS DNA (from 215 bp), the binding signal (fraction of maximum signal on closed DNA) with VirB (Shigella flexneri) is 0.25. Turning to “AATATATTCAATTAATAAATTTAGAAACTTGAGCCTGTTAACATAATCAAATTTTCTTTTGCTGTACATAATATGTACCTCGTGAGCATATGTAGTGCTCGTTTCATCATGAAATCCCACAAGATAAAGTGCCTGATGTATCAGGCTCGGAGTGTTATAGAAAAAGAGAGAACCCTGTTGAATAAGTATCTTTTTTGTTGTAAAACGAGGTACAA (double strand) [closed virS DNA (215 bp)]”, the Kd in the series with VirB (Shigella flexneri) came to 2.3 µM.

In turn, `Nc1ccn([C@@H]2O[C@H](COP(=O)(O)OP(=O)(O)OP(O)(O)=S)[C@@H](O)[C@H]2O)c(=O)n1` [CTPγS] yielded a Kd at VirB [3] of approximately 12 µM.

B1: open virS oligonucleotide (23 bp) (dsDNA)
DNA 1: GCTCGTTTCATCATGAAATCCCA
DNA 2: TGGGATTTCATGATGAAACGAGC
Regarding B1, in the series with VirB [4], the binding result was “binds”.

B2: VirB from Shigella flexneri (wild type) (natural protein)
chain: T2 sequence
notes: VirB of S. flexneri, UniProt P0A247; Native C5 was used for BMOE cross-linking; also called WT; wild-type VirB; source: E. coli Rosetta(DE3)pLysS, purified (IMAC, Ulp1 cleavage of the His6-SUMO tag, second IMAC, SEC); not shown: His6, N-terminal, cleaved; SUMO, N-terminal, cleaved
For the molecule B2, the stoichiometry N (in general, the number of molecules, sites or subunits per partner or assembly) in series [5] came to 2.

B3: VirB-C5S/Q15C (natural protein)
chain: T2 sequence with C5S, Q15C
notes: VirB of S. flexneri, UniProt P0A247, lacking the native cysteine at position 5 and carrying an engineered cysteine at position 15; source: E. coli Rosetta(DE3)pLysS, purified (IMAC, Ulp1 cleavage of the His6-SUMO tag, second IMAC, SEC); not shown: His6, N-terminal, cleaved; SUMO, N-terminal, cleaved
For B3, the binding result in series [6] is reported as “binds”.
